According to PMC7020344:

Biological target: Pyruvate kinase M2 isoform (human (endogenous in A549)) (UniProt P14618)
Test: cross-linking; A549 cells washed with PBS pH 8.0 and treated with BS3 for 1 h at room temperature before lysis in loading buffer; dimers and tetramers by immunoblot; cells with eEF2K depletion, overexpression or A484954

Sequence of Pyruvate kinase M2 isoform, P14618 1-531 (enzyme; other documents disagree on this pair) (P14618 whole entry, canonical isoform): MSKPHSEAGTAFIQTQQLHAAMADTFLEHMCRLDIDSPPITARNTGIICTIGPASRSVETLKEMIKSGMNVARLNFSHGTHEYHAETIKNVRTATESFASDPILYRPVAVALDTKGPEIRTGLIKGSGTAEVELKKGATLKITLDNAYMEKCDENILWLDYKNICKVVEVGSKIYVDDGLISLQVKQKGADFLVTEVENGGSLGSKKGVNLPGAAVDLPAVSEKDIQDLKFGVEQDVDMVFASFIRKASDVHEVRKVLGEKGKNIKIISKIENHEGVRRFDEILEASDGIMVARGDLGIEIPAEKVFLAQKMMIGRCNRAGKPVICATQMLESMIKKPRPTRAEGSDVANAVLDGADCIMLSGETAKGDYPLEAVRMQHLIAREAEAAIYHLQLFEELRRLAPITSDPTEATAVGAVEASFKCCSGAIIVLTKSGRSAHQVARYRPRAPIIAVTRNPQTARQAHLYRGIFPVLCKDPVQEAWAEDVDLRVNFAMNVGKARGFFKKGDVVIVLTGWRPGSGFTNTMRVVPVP

stoichiometry N: 2
Substance: Pyruvate kinase M2 isoform, P14618 1-531 (enzyme; other documents disagree on this pair)
